# What was measured:
# [1] = biological target: Fc-tagged fibre 1 of the novel FAdV-4 (fowl adenovirus serotype 4 (FAdV-4), strain HLJFAd15)
# [2] = biological target: Fc-tagged fibre 1 of the novel FAdV-4 (fowl adenovirus serotype 4 (FAdV-4), strain HLJFAd15); remark: listed apart in the source
substance,measurement,setting,value
"D2 domain of chicken CAR, soluble, His-tagged (domain or fragment)","block of FAdV-4 infectivity in LMH cells (qPCR at 24 hpi) after pre-incubation of the virus with 12.5 or 25.0 ng/μl D2-CAR; 78% at 12.5 ng/μl, 99.9% at 25 ng/μl",[1],99.9%
"Fc-tagged CAR protein, soluble (Fc fusion)",block of FAdV-4 infection of LMH cells (qPCR at 24 hpi) after pre-incubation of the virus with 3.125–12.5 ng/μl soluble CAR protein; Fc protein as negative control,[2],76 to 80%
